No end group written: not given here.
Target: the receptor on THP-1 cells
Assay: cell-based or functional assay

B1: recombinant human relaxin 800828 (WT, wild-type) (ligand)
chain 1: DSWMEEVIKLCGRELVRAQIAICGMSTWS
chain 2: QLYSALANKCCHVGCTKRSLARFC
modifications: not fully specified; ends and bridges not checked
For B1, the “EC50 (ng/ml) of cAMP induced in THP-1 cells (cAMP ELISA)” value was 3.03 ng/mL.

From patent US20160326230A1 (SHANGHAI HENGRUI PHARMACEUTICAL, published 2016)
